Source: US20250243285A1 (Novartis, published 2025)
Where a chain is given by its changes, count along the chain named.

B1: C4-27z CAR (fully human anti-FRA C4 scFv linked to CD27 and CD3z signaling domains), on primary human T cells (other, not shown: large carriers)
chain: QLVESGGGLVQPGRSLRLSCTTSGFTFGDYAMIWARQAPGKGLEWVSSISSSSSYIYYADSVKGRFTISRDNAKNSLYLQMNSLRAEDTAVYYCARERYDFWSGMDVWGKGTTVTVSSGGGGSGGGGSGGSAQSALTQPASVSGSPGQSITISCTGTSSDVGSYNLVSWYQQHPGKAPKLMIYEGSKRPSGVSNRFSGSKSGNAASLTISGLQAEDEADYYCQSYDSSLSVVFGGGTKLTVLG
B2: C10 (scFv)
scFv: EVQLVQSGAEVKKPGSSVKVSCKASGGTFSSYAISWVRQAPGQGLEWMGGIIPIFGTANYAQKFQGRVTITADESTSTAYMELSSLRSEDTAVYYCAREEGPYCSSTSCYGAFDIWGQGTLVTVSSGGGGSGGGGSGGGGSQSVLTQDPAVSVALGQTVKITCQGDSLRSYFASWYQQKPGQAPTLVMYARNDRPAGVPDRFSGSKSGTSASLAISGLQSEDEADYYCAAWDDSLNGYLFGAGTKLTVL
notes: The CAR built from it is m23; also called C10 scFv (anti-EGFR, parental)
B3: P3-5 (scFv)
scFv: B2 scFv with M48V, T69K, T76A, F172L, M188T
notes: The CAR built from it is m22; also called P3-5 scFv (anti-EGFR)
B4: P2-4 (scFv)
scFv: B2 scFv with G111A, V151A
notes: The CAR built from it is m21; also called P2-4 scFv (anti-EGFR)

Experiments:
[1] = biological target: Folate receptor alpha on cells (SKOV3, A1847, T47D; low levels on 293T and IOSE 6) (human, UniProt P15328 25-234); test: cell-based or functional assay
Folate receptor alpha on cells (SKOV3, A1847, T47D; low levels on 293T and IOSE 6), sequence (P15328 25-234, stated change not applied): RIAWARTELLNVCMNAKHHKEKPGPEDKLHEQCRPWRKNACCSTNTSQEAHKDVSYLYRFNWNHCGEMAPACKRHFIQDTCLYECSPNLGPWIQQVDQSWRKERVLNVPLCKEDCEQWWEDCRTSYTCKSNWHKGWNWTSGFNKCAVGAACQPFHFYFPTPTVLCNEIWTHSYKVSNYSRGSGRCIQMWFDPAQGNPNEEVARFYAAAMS

[2] = biological target: T1, EGFR on cells (A431; tumor cell lines; K562 cells electroporated with EGFR mRNA) (UniProt P00533 25-1210, limits assumed); test: affinity of the scFv printed above the panel (legend paragraph 89; called KD, nM in paragraph 90); method and form of EGFR not given in the filing, text cites Zhou et al. 2007
T1 construct: whole, on cells; also called epidermal growth factor receptor

Binder	CAR expression kept after overnight co-culture with SKOV3 cells at the lowest E:T ratio [1]	frequency of CAR T cells expressing IFN-γ after incubation with FRAPOS SKOV3 cells, fold over MOv19 CAR T cells [1] [fold]	frequency of CAR T cells expressing IL-2 after incubation with FRAPOS SKOV3 cells, fold over MOv19 CAR T cells [1] [fold]	frequency of CAR T cells expressing TNF-α after incubation with FRAPOS SKOV3 cells, fold over MOv19 CAR T cells [1] [fold]	Kd [2] [nM]
B1	~50 % of initial CAR expression	5.6	9	6.1	
B2					264
B3					88.2
B4					15.4
